Here are results for one substance from PMC5288973.

The assay deals with taxol-stabilized microtubules assembled from bovine brain tubulin (bovine) (UniProt Q6B856). As to the kind of experiment: co-sedimentation; various amounts of MBP-GPT2 with a constant amount of taxol-stabilized MTs polymerized from 1 uM tubulin heterodimer; fit of q = (qmax x c)/(Kd + c), one GPT2 binding site on the tubulin dimer assumed.

As to “MBP-GPT2 (full-length Growing Plus-end Tracking protein 2 fused to maltose-binding protein) (from UniProt Q94B38 69-388) (natural protein)”, the stoichiometry N (mol of GPT2 per mol of tubulin dimer) came out at 2.5.
